# Source: the supplement of paper PMC9732359
# ± gives the uncertainty stated by the source.
# Experiment: protein stability index of a GFP-peptide fusion (yeast GPS) (PSI 1-4); higher = more stable; sorted into four equal gates, so the index is relative within each strain
# Procedure, shortened: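 The protein stability index of a peptide was calculated by multiplying its read frequency in each gate by that gate's number and adding the products. The peptides were tiled 17-residue stretches of yeast proteins, fused downstream of GFP on a Cherry-expressing plasmid and carried in yeast as a pooled library. Mid-log cultures in leucine-free medium were sorted into four equal gates by GFP/Cherry ratio, and each gate's plasmids were PCR-amplified and Illumina-sequenced.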
Sequence,protein stability index (doa10∆),protein stability index (pdr5∆),protein stability index (san1∆),protein stability index (ubr1∆)
LLPLVVSNISCLTGTVA [ECM29],1.25 ± 0.041,1.38 ± 0.034,1.38 ± 0.094,1.45 ± 0.037
HRKHIAVLKKIQSKAVE [YCG1],2.55 ± 0.11,2.81 ± 0.097,2.69 ± 0.1,2.57 ± 0.064
QQLRRALPDVVVKGLPD [RPO31],2.19 ± 0.069,2.31 ± 0.057,1.93 ± 0.078,2.36 ± 0.083
ENPDLSTKKKILGIHTS [RPT2],2.8 ± 0.14,3.02 ± 0.24,2.98 ± 0.087,2.9 ± 0.15
FLKERLMEASDAFRVHI [RPB2],1.66 ± 0.073,1.7 ± 0.12,2 ± 0.15,1.74 ± 0.1
DKLTSIQDTLRTGSQSP [MED7],2.7 ± 0.042,2.82 ± 0.045,2.69 ± 0.032,2.89 ± 0.033
NALYDTLLESNLCKIIE [RPN6],2.07 ± 0.068,2.48 ± 0.079,2.01 ± 0.065,2.41 ± 0.082
HSQFMKDLKDDSIYTKP [YJL039C/NUP192],2.83 ± 0.045,3.02 ± 0.05,3.02 ± 0.044,2.93 ± 0.038
YTLTEEGVEYLREYLNL [RPS10A],3.28 ± 0.11,3.37 ± 0.095,3.51 ± 0.16,3.39 ± 0.12
RNSNPENTVGLISGAGA [RPN10],2.93 ± 0.11,2.81 ± 0.074,2.6 ± 0.067,2.06 ± 0.069
EIFHLLQPLEEGLIIDT [SIN4],1.99 ± 0.2,2.13 ± 0.11,2.21 ± 0.22,1.97 ± 0.093
AKEKERMLEEAIDHLKA [YIL149C/MLP2],3.03 ± 0.05,3.12 ± 0.054,3.16 ± 0.056,3.01 ± 0.049
QNNEQNPIDPFNIIREF [YDL116W/NUP84],3.07 ± 0.052,3.15 ± 0.051,3.2 ± 0.04,3.17 ± 0.041
AIPNPEDVVAISSRTFG [RPS0A],3.22 ± 0.1,2.94 ± 0.05,2.91 ± 0.077,2.94 ± 0.043
LFNESFIMASVGKYDKA [SRP72],3 ± 0.29,2.85 ± 0.27,,
KLQGLYENIPIYATFLN [YDL116W/NUP84],1.32 ± 0.063,1.25 ± 0.058,1.22 ± 0.14,1.13 ± 0.059
KQRFQGCNNLIKNISNR [ARP9],2.89 ± 0.07,2.88 ± 0.048,3.26 ± 0.063,3.03 ± 0.048
KHVGFELLSMGNAKESK [SRP72],2.88 ± 0.11,2.03 ± 0.14,2.4 ± 0.18,3.24 ± 0.14
RNVGKTLVNKSTGLKNA [RPS1B],2.81 ± 0.098,2.72 ± 0.097,2.59 ± 0.12,2.96 ± 0.086
KRFLILQGEVENIAQMK [SMC4],3.05 ± 0.29,2.98 ± 0.14,3.2 ± 0.14,2.79 ± 0.098
LAFKKNEMLLKRVTKVK [MTW1],1.77 ± 0.065,2.03 ± 0.052,2.31 ± 0.12,2.03 ± 0.035
IEHNLRVISEYYSRITL [RPN5],2.63 ± 0.087,2.54 ± 0.078,2.41 ± 0.063,2.46 ± 0.073
AFVEFGASVIAGGQRIV [SWP82],2.21 ± 0.13,2.35 ± 0.1,2.02 ± 0.1,2.07 ± 0.085
NDLRVSLNEKNALHTER [SMC1],3.11 ± 0.11,3.24 ± 0.096,2.67 ± 0.11,2.81 ± 0.089
PNVFDKDSYVRIANIEQ [YDL088C/ASM4],3 ± 0.093,3.09 ± 0.047,3.04 ± 0.07,3.22 ± 0.051
QLAVRAPKGQNTLILRG [RPL18A],2.86 ± 0.28,,,

Sequence,protein stability index (doa10∆),protein stability index (pdr5∆),protein stability index (san1∆),protein stability index (ubr1∆)
PVQIVKRITQITIEPGV [RPS20],1.74 ± 0.15,1.79 ± 0.25,1.35 ± 0.21,1.65 ± 0.12
VQKILPLSNEVFEISEN [SWI1],2.13 ± 0.043,1.85 ± 0.039,1.73 ± 0.06,2.17 ± 0.035
GNSKDDLLDMIQFGAKN [ISW2],3.14 ± 0.2,2.89 ± 0.16,2.95 ± 0.11,2.92 ± 0.093
QSEHLEAVVDQDVQRTC [FAS1],3.47 ± 0.25,3.36 ± 0.14,3.49 ± 0.094,3.38 ± 0.095
TFRLPKTLKLARAPKYA [RPL25],1.69 ± 0.076,1.61 ± 0.072,1.23 ± 0.19,1.19 ± 0.047
VVPDLGHLNGHTPTIAS [SSN2],2.15 ± 0.045,2.65 ± 0.055,2.69 ± 0.048,2.59 ± 0.038
SRHFASYANLPGTITHG [FAS1],2.75 ± 0.059,2.82 ± 0.055,2.57 ± 0.055,2.71 ± 0.039
YDRKKLPRKEVDDVLGG [RPC11],3.2 ± 0.1,3.64 ± 0.14,3.29 ± 0.065,3.32 ± 0.099
EISPQDSIASVLSPDSN [GAL11],1.99 ± 0.064,2.34 ± 0.062,2.98 ± 0.087,2.64 ± 0.055
KALDNACGAFININEFA [CDC53],2.56 ± 0.12,3 ± 0.14,2.71 ± 0.094,2.82 ± 0.15
NKTLTFETETEVTFKNA [FAS1],3.15 ± 0.078,3.23 ± 0.093,3.28 ± 0.084,3.35 ± 0.049
VRIDLGTIDKLQLELTI [RPO31],1.99 ± 0.049,2.21 ± 0.052,2.5 ± 0.053,2.91 ± 0.042
TRVEGSGGGDSEVQRTM [RPT6],2.73 ± 0.098,2.65 ± 0.13,2.98 ± 0.087,3.19 ± 0.051
ANNDINSLLSNFNDIPP [YDL088C/ASM4],2.56 ± 0.097,2.87 ± 0.18,2.67 ± 0.27,3.13 ± 0.14
EEEKSVDASPNDVTRRT [CSL4],3.25 ± 0.08,3.33 ± 0.085,3.27 ± 0.05,3.44 ± 0.065
VTRTHGNSGVVRATFRN [RPL33A],2.6 ± 0.075,2.82 ± 0.088,2.56 ± 0.092,2.86 ± 0.073
QNIETRQLANLIPFIVK [NUT1],1.61 ± 0.054,1.58 ± 0.041,1.41 ± 0.086,1.63 ± 0.039
GMIYNKLFVSKEHAPYT [FAS2],3.12 ± 0.091,2.2 ± 0.092,2.24 ± 0.17,2.41 ± 0.1
IRDSGDRIDLRYSKRAG [RPO21],3.43 ± 0.18,3.34 ± 0.23,3.25 ± 0.12,3.27 ± 0.19
AVVVRGRYAGKKVVIVK [RPL27A],3.13 ± 0.11,3.38 ± 0.067,3.03 ± 0.074,2.81 ± 0.082
IDSFFLYVLPSFNIPRL [YMR129W/POM152],1.77 ± 0.05,1.57 ± 0.038,1.64 ± 0.093,1.26 ± 0.031
LEAKRKVSSAEYYAKKR [RPL16A],3.06 ± 0.14,3.3 ± 0.11,2.86 ± 0.11,3.35 ± 0.09
NPYSSYVSQIRKHKRVS [YAR002W/NUP60],2.23 ± 0.081,1.88 ± 0.05,2.85 ± 0.049,2.38 ± 0.067
TLHLVLRLRGGGKKRKK [RPS31],2.34 ± 0.26,2.32 ± 0.084,2.83 ± 0.3,2.86 ± 0.14
RELLNPRYTYHTIFSDV [YML031W/NDC1],3.01 ± 0.053,3.05 ± 0.052,2.71 ± 0.045,2.93 ± 0.058
SQYFKFKNDFNSFYYTS [RPN9],2.1 ± 0.075,2.33 ± 0.06,2.51 ± 0.084,2.58 ± 0.056
